Data set [1] is described as follows: Folding and unfolding kinetics (Chevron plot, stopped-flow CD, GuHCl). The format is physicochemical. The following applies: for kf: folding rate constant extrapolated to 0M GuHCl; for kf / ku: global Chevron fit; for ΔΔG‡-D / ΔΔG‡-N: in reference to WT*; for ΔΔG‡-D: positive value = decrease in folding activation barrier; for ΔΔG‡-N: positive value = decrease in unfolding activation barrier; for mf: slope of ln(kf) vs GuHCl; for mu: slope of ln(ku) vs GuHCl; for ku: unfolding rate constant extrapolated to 0M GuHCl. On the procedure: Due to signal-to-noise considerations, relatively high protein concentrations (>100 μM) of FGF-1 were required for kinetic studies monitored by CD. At these concentrations protein precipitation occurred in ADA buffer. Therefore, a different buffering system was chosen for the kinetic studies to permit higher protein concentrations without precipitation. Protein samples were dialyzed against 50 mM sodium phosphate, 100 mM NaCl, 10 mM ammonium sulfate, 2 mM DTT, and typically 2.5, 3.0 or 3.8M GuHCl pH 7.5 overnight at 298K prior to data collection (higher concentrations of GuHCl were required to ensure complete denaturation for some stabilizing mutations).
Protein samples were degassed for 10 minutes prior to analysis. Refolding was initiated by a 1:10 dilution of protein solutions into 50 mM sodium phosphate, 100 mM NaCl, 10 mM ammonium sulfate, 2 mM DTT pH 7.5 containing either 0.1M or 0.05M increments of GuHCl up to the midpoint of denaturation. All data were collected using an Aviv model SF305 stopped flow system. Data collection times for each protein were designed to quantify the CD signal over 5 half-lives, or >96% of the total expected amplitude.
Protein samples (300 μM) were dialyzed against 50 mM sodium phosphate, 100 mM NaCl, 10 mM ammonium sulfate, 2 mM DTT pH 7.50 buffer overnight at 298K, and degassed for 10 min prior to data collection. Unfolding was initiated by 1:10 dilution of the native protein into 50 mM sodium phosphate, 100 mM NaCl, 10 mM ammonium sulfate, 2 mM DTT pH 7.5 buffer with final GuHCl concentration in the range of 1.5 to 5.5M in 0.5M increments. The unfolding process was quantified by following the change in CD signal at 227 nm, and data collection times for each protein were designed so as to monitor the CD signal over 3 to 4 half-lives, or >93% of the total expected amplitude.
Triplicate scans were collected for both folding and unfolding kinetic data at each GuHCl buffer condition. In all cases, data from at least three separate experiments were averaged. The kinetic rates and amplitudes versus denaturant concentration were calculated from the time dependent change in CD signal using a single exponential model: I(t)=Aexp(−kt)+C (3) where I(t) is the intensity of CD signal at time t, A is the corresponding amplitude, k is the observed rate constant for the reaction and C is a constant that is the asymptote of the CD signal. Folding and unfolding rate constant data were fit to a global function describing the contribution of both rate constants to the observed kinetics as a function of denaturant (“Chevron” plot): In(kobs)=In(kf0exp(mkfD)+ku0exp(mkuD)) (5) where kf0 and ku0 are the folding and unfolding rate constants, respectively, extrapolated to 0M denaturant, mkf and mku are the slopes of the linear functions relating In(kf) and In(ku), respectively, to D, the denaturant concentration. Changes in activation barriers upon mutation were calculated using a modified version of transition state theory: ΔΔG‡-D=RTIn(kf Mut/kfWT*) and ΔΔG‡-N=RTIn(ku Mut/kuWT*) (6) where kf Mut, ku Mut, kf WT* and ku WT* are the folding and unfolding rates for mutant and WT*, respectively, in water. ΔΔG‡-D, and ΔΔG‡-N are the changes in the activation barrier for folding and unfolding, respectively, between mutation and WT*. A positive value for ΔΔG‡-D or ‡‡G‡-N indicates a decrease in the associated activation barrier energy. Isothermal Titration Calorimetry.
Due to the relatively weak differential CD signal of native and denatured FGF-1, the folding kinetics study required relatively high protein concentrations (>5 mg/ml). […] Thus, the refolding rate constants were not obtainable below certain denaturant concentrations for these mutants. […] The SYM6Δ120-122 mutant is substantially destabilized relative to the WT* protein (see Table II) and presents a relatively short “folding arm” in the Chevron plot, for this reason there is greater uncertainty associated with the folding kinetics determined for this mutant. […]

The test system of another data set is NIH 3T3 fibroblasts. Nature of the data set: Cell proliferation (mitogenic activity) assay. The format is cell-based. The settings on record: NIH 3T3 fibroblasts; for EC50 (effective concentration for 50% maximal stimulation): 48 hours. On the procedure: NIH 3T3 fibroblasts were initially plated in Dulbecco's modified Eagle's medium (DMEM) (American Type Culture Collection, Manassas Va.) supplemented with 10% (v/v) newborn calf serum (NCS) (Sigma, St. Louis Mo.), 100 units of penicillin, 100 μg streptomycin, 0.25 μg Fungizone™ and 0.01 mg/ml gentamicin (Gibco, Carlsbad Calif.) (“serum-rich” medium) in T75 tissue culture flasks (Fisher, Pittsburgh Pa.). The cultures were incubated at 37° C. and all cell growth was performed with 5% CO2 supplementation. At approximately 80% cell confluence, the cells were washed with 5 ml cold 0.14M NaCl, 5.1 mM KCl, 0.7 mM Na2HPO4 and 24.8 mM Trizma® base, pH 7.4 (TBS) and subsequently treated with 5 ml of a 0.025% trypsin solution (Invitrogen Corp., Carlsbad Calif.). Cell synchronization was initiated by serum starvation in DMEM with 0.5% NCS, 100 units of penicillin, 100 μg streptomycin, 0.25 μg Fungizone™ and 0.01 mg/ml gentamicin (“starvation” medium). The cells were seeded in T25 tissue culture flasks (Fisher, Pittsburgh, Pa.) at a cell density of 3.0×10^4 cells/cm^2 (representing ˜20% confluence). Duplicate flasks were used for each protein concentration. Cultures were incubated for 48 hours at 37° C., the medium was then decanted and replaced with fresh medium supplemented with the appropriate concentration of FGF-1 polypeptide, and incubated for an additional 48 hours. After this incubation, the medium was decanted and the cells were washed with 1 ml cold TBS pH 7.4. 1 ml of 0.025% trypsin was then added to release the cells from the flask surface, and 2 ml of serum-rich medium were added to dilute and inhibit the trypsin. The cells were counted using a hemocytometer (Hausser Scientific Partnership, Horsham Pa.). Experiments were performed in quadruplicate and the cell densities were averaged. The relationship between the cell number and log concentration of added growth factor was fit to a sigmoidal function.
Mitogenic activity towards NIH 3T3 fibroblasts was determined for WT*, SYM5, SYM5Δ104-106, SYM5Δ120-122, and SYM6ΔΔ mutants. […] The NIH 3T3 fibroblast proliferative activity of WT* FGF-1 yielded an effective concentration for 50% maximal stimulation (EC50) of 60 ng/ml (FIG. 3).

In the case of “WT*: Wild type (his-tagged) 140 amino acid form of human FGF-1, SEQ ID NO: 4 [reference compound]”, in data set [1], the kf was 3.31 s⁻¹, the “ΔΔG‡-D” value turned out to be 0 kcal/mol, the “ΔΔG‡-N” value was 0 kcal/mol and the mf was -6.05 M⁻¹. Further, in data set [1], the mu was 0.47 M⁻¹ and the ku is on record as 0.69 1 × 10^−3 sec^−1. In addition, the “EC50 (effective concentration for 50% maximal stimulation)” value with NIH 3T3 fibroblasts came out at 0.06 µg/mL.

B1: SYM5/Δ120-122: SYM5 FGF-1 mutant plus Arg119→Gly/ΔGly120/ΔPro121/ΔArg122, SEQ ID NO: 2 (protein)
chain: FNLPPGNYKKPKLLYCSNGGHFLRILPDGTVDGTRDRSDQHIQFQLSAESVGEVYIKSTETGQYLAMDTDGLVYGSQTPNEECLFLERLEENHYNTYISKKHAEKNWFLGIKKNGSVKGTHYGQKAILFLPLPVSSD
modifications: Human FGF-1 mutant SYM5D120-122
As to B1, in data set [1], the kf was 7.29 s⁻¹, the “ΔΔG‡-D” value worked out at 0.468 kcal/mol, the “ΔΔG‡-N” value came out at 0.502 kcal/mol and the mf was -6.44 M⁻¹. Further, in data set [1], the mu was found to be 0.80 M⁻¹ and the ku was 1.60 1 × 10^−3 sec^−1. Further, the “EC50 (effective concentration for 50% maximal stimulation)” value in the data set with NIH 3T3 fibroblasts was determined as 0.0021 µg/mL.

B2: SYM6/ΔΔ: SYM6 FGF-1 mutant plus both Δ104-106 and Δ120-122 deletion mutations, SEQ ID NO: 1 (protein)
chain: FNLPPGNYKKPKLLYCSNGGHFLRILPDGTVDGTRDRSDQHIQFQLSAESVGEVYIKSTETGQYLAIDTDGLVYGSQTPNEECLFLERLEENHYNTYISKKHGWFLGIKKNGSVKGTHYGQKAILFLPLPVSSD
modifications: Human FGF-1 mutant SYM6DD
With B2, the folding behavior result in data set [1] (all denaturant concentrations evaluated) was “single exponential folding behavior”. In data set [1], the kf was 74.0 s⁻¹, the “ΔΔG‡-D” value came out at 1.84 kcal/mol, the “ΔΔG‡-N” value worked out at 0.602 kcal/mol and the mf is -4.40 M⁻¹. Moreover, in data set [1], the mu turned out to be 0.69 M⁻¹ and the ku is reported as 1.90 1 × 10^−3 sec^−1. Also, in the data set with NIH 3T3 fibroblasts, the “mitogenic activity in comparison to WT* (in words)” value (“mitogenic activity in comparison” below) was “almost two orders of magnitude more potent” and the “EC50 (effective concentration for 50% maximal stimulation)” value was found to be 0.00084 µg/mL.

B3: SYM5: FGF-1 core mutant Leu44→Phe/Leu73→Val/Val109→Leu/Leu111→Ile/Cys117→Val (protein, UniProt P05230 16-155, looked up, variant L44F L73V V109L L111I C117V)
Fibroblast growth factor 1: FNLPPGNYKKPKLLYCSNGGHFLRILPDGTVDGTRDRSDQHIQFQLSAESVGEVYIKSTETGQYLAMDTDGLVYGSQTPNEECLFLERLEENHYNTYISKKHAEKNWFLGIKKNGSVKRGPRTHYGQKAILFLPLPVSSD
Regarding B3, in data set [1], the kf is 2.57 s⁻¹, the “ΔΔG‡-D” value is -0.151 kcal/mol, the “ΔΔG‡-N” value was -0.6 kcal/mol and the mf was -6.44 M⁻¹. In data set [1], the mu amounted to 0.57 M⁻¹ and the ku was 0.25 1 × 10^−3 sec^−1. The “mitogenic activity in comparison” value in the data set with NIH 3T3 fibroblasts is listed as “essentially identical results as WT*”.

B4: SYM5/Δ104-106: SYM5 FGF-1 mutant plus Ala103→Gly/ΔGlu104/ΔLys105/ΔAsn106 (protein, UniProt P05230 16-155, looked up, variant L44F L73V V109L L111I C117V A103G del104-106)
Fibroblast growth factor 1: FNLPPGNYKKPKLLYCSNGGHFLRILPDGTVDGTRDRSDQHIQFQLSAESVGEVYIKSTETGQYLAMDTDGLVYGSQTPNEECLFLERLEENHYNTYISKKHGWFLGIKKNGSVKRGPRTHYGQKAILFLPLPVSSD
For B4, in data set [1], the kf was 2.00 s⁻¹, the “ΔΔG‡-D” value was -0.299 kcal/mol, the “ΔΔG‡-N” value is -0.0598 kcal/mol and the mf is -3.70 M⁻¹. Also, in data set [1], the mu is 0.95 M⁻¹ and the ku is on record as 0.62 1 × 10^−3 sec^−1. For the same molecule, in the data set on NIH 3T3 fibroblasts, the “mitogenic activity in comparison” value is recorded as “approximately two-fold less mitogenic activity” and the “EC50 (effective concentration for 50% maximal stimulation)” value is 0.115 µg/mL.

(Values after patent US7790682B1, “Engineered human acidic fibroblast growth factors and associated methods” (The Florida State University Research Foundation, Inc., priority 2003, dated 2010).)
